From publication PMC4501837, “Mutational Dissection of Telomeric DNA Binding Requirements of G4 Resolvase 1 Shows that G4-Structure and Certain 3’-Tail Sequences Are Sufficient for Tight and Complete Binding” come the findings set out here.

Positions count from the first letter of the chain named.

Series [1] deals with T1, G4 Resolvase 1 (G4R1) (UniProt Q9H2U1 1-1008).
T1 sequence: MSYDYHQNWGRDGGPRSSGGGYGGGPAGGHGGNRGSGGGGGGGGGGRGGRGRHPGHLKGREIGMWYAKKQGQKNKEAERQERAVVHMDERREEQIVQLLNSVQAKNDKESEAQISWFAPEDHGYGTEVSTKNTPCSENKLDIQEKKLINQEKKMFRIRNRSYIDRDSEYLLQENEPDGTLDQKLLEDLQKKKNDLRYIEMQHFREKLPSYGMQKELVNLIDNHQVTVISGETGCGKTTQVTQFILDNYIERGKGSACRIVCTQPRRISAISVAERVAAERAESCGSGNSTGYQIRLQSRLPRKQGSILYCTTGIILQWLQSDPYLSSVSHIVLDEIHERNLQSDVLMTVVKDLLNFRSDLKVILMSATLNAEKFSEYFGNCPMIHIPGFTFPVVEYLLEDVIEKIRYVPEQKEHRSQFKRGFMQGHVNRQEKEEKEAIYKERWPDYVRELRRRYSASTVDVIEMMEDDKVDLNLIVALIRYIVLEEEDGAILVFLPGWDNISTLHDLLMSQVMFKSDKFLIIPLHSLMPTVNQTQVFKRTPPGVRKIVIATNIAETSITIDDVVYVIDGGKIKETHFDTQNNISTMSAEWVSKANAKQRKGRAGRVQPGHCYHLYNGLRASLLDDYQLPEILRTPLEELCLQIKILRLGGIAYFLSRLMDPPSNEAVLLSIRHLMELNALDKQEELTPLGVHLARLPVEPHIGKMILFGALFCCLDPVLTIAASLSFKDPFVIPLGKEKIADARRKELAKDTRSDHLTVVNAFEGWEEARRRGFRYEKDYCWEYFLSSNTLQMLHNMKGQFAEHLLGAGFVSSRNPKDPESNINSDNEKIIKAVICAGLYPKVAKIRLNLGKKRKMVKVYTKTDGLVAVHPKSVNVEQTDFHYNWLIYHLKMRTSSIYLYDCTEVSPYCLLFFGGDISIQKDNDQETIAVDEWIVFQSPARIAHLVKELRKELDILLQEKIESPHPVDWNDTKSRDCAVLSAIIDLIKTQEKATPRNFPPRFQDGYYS
As to the kind of experiment: EMSA; K+; similar to Tel33; 50 mM KCl, 10 mM NaCl (or 50 mM KCl or 50 mM NaCl alone), 3 mM MgCl2, 50 mM Tris acetate pH 7.8, 70 mM glycine, 0.012% bovine lactalbumin, 10% glycerol, 10 mM EDTA; 37 C, 0.5 or 24 h; 1 pM DNA, 10-500 pM G4R1; gel at 7 C. The following applies: protein: recombinant, label: 5'-32P. A general note: A gel shift assay detects complexes by their altered migration in electrophoresis.

For series [2], the target named is T1, G4 Resolvase 1 (G4R1). In words: EMSA; K+; 50 mM KCl, 10 mM NaCl (or 50 mM KCl or 50 mM NaCl alone), 3 mM MgCl2, 50 mM Tris acetate pH 7.8, 70 mM glycine, 0.012% bovine lactalbumin, 10% glycerol, 10 mM EDTA; 37 C, 0.5 or 24 h; 1 pM DNA, 10-500 pM G4R1; gel at 7 C. The following applies: protein: recombinant, label: 5'-32P, unimolecular G4, 3+1 in K+.
Series [3] addresses T1, G4 Resolvase 1 (G4R1). In words: EMSA; 50 mM KCl, K+-induced 3+1 G4, 24 h; apparent Kd, n=3; 50 mM KCl, 10 mM NaCl (or 50 mM KCl or 50 mM NaCl alone), 3 mM MgCl2, 50 mM Tris acetate pH 7.8, 70 mM glycine, 0.012% bovine lactalbumin, 10% glycerol, 10 mM EDTA; 37 C, 0.5 or 24 h; 1 pM DNA, 10-500 pM G4R1; gel at 7 C. The following applies: protein: recombinant; label: 5'-32P; unimolecular G4; 3+1 in K+, 2+2 basket in Na+.

Series [4] has as its target T1, G4 Resolvase 1 (G4R1). As to the kind of experiment: EMSA; K+; negligible binding; 50 mM KCl, 10 mM NaCl (or 50 mM KCl or 50 mM NaCl alone), 3 mM MgCl2, 50 mM Tris acetate pH 7.8, 70 mM glycine, 0.012% bovine lactalbumin, 10% glycerol, 10 mM EDTA; 37 C, 0.5 or 24 h; 1 pM DNA, 10-500 pM G4R1; gel at 7 C. The following applies: protein: recombinant; label: 5'-32P; G4 ablated (CD).

The target in series [5] is T1, G4 Resolvase 1 (G4R1). As to the kind of experiment: EMSA; K+; significant binding restored; 50 mM KCl, 10 mM NaCl (or 50 mM KCl or 50 mM NaCl alone), 3 mM MgCl2, 50 mM Tris acetate pH 7.8, 70 mM glycine, 0.012% bovine lactalbumin, 10% glycerol, 10 mM EDTA; 37 C, 0.5 or 24 h; 1 pM DNA, 10-500 pM G4R1; gel at 7 C. The following applies: protein: recombinant; label: 5'-32P; unimolecular G4, two tetrads expected.

For series [6], the target named is T1, G4 Resolvase 1 (G4R1). As to the kind of experiment: EMSA; K+; complete binding restored; 50 mM KCl, 10 mM NaCl (or 50 mM KCl or 50 mM NaCl alone), 3 mM MgCl2, 50 mM Tris acetate pH 7.8, 70 mM glycine, 0.012% bovine lactalbumin, 10% glycerol, 10 mM EDTA; 37 C, 0.5 or 24 h; 1 pM DNA, 10-500 pM G4R1; gel at 7 C. The following applies: protein: recombinant; label: 5'-32P; unimolecular G4, two tetrads expected.

Series [7] deals with T1, G4 Resolvase 1 (G4R1). In words: EMSA; K+; did not significantly bind; 50 mM KCl, 10 mM NaCl (or 50 mM KCl or 50 mM NaCl alone), 3 mM MgCl2, 50 mM Tris acetate pH 7.8, 70 mM glycine, 0.012% bovine lactalbumin, 10% glycerol, 10 mM EDTA; 37 C, 0.5 or 24 h; 1 pM DNA, 10-500 pM G4R1; gel at 7 C. The following applies: protein: recombinant; label: 5'-32P; unimolecular G4, 3+1 in K+, at most 2 nt 3' tail.

[8] abbreviates: unimolecular 5' G4 with about 11 nt 3' tail.

B1: Tel22-3'polyT-mutAGAA (structured_DNA)
DNA: AGGGTTAGGGTTAGGGTTAGGGTTAGAATTTTT
Regarding B1, the binding result with G4 Resolvase 1 (G4R1) [1] (setting [8]) is “binds”.

B2: Tel22-3'polyT-mutAAGA (structured_DNA)
DNA: B1 DNA with G26A, A27G
Regarding B2, the binding result in the series with G4 Resolvase 1 (G4R1) [1] (setting [8]) was “binds”.

B3: Tel30 (structured_DNA)
DNA: GGTTAGGGTTAGGGTTAGGGTTAGGGTTAG
Regarding B3, in the series with G4 Resolvase 1 (G4R1) [2], the binding result is listed as “binds”.

B4: Tel22 (structured_DNA)
DNA: AGGGTTAGGGTTAGGGTTAGGG
On to B4, for which the binding result with G4 Resolvase 1 (G4R1) [2] (no 3' tail) is listed as “no binding”.

B5: Tel33 (structured_DNA)
DNA: TTAGGGTTAGGGTTAGGGTTAGGGTTAGGGTTA
Take B5: the Kd with G4 Resolvase 1 (G4R1) [3] came to 10 ± 1.9 pM.

B6: Tel33mut5-mutA (ssDNA)
DNA: B5 DNA with G5A, G29A
Consider B6, for which, in the series with G4 Resolvase 1 (G4R1) [4], the binding result is on record as “no binding”.

B7: Tel33mut5 (structured_DNA)
DNA: B5 DNA with G29A
As for B7, the binding result in the series with G4 Resolvase 1 (G4R1) [1] (unimolecular 5' G4 with 3' tail about 11 nt) is on record as “binds”.

B8: Tel33mut5-mutA-pos3G (structured_DNA)
DNA: B5 DNA with A3G, G5A, G29A
For B8, the binding result in the series with G4 Resolvase 1 (G4R1) [5] was “binds”.

B9: Tel33mut5-mutA-pos7G (structured_DNA)
DNA: B5 DNA with G5A, T7G, G29A
For B9, in the series with G4 Resolvase 1 (G4R1) [6], the binding result is on record as “binds”.

B10: Tel26 (structured_DNA)
DNA: TTAGGGTTAGGGTTAGGGTTAGGGTT
As to B10, the binding result in the series with G4 Resolvase 1 (G4R1) [7] was “no binding”.
